Measured values taken from paper PMC6250708, “Arabidopsis thaliana DGAT3 is a [2Fe-2S] protein involved in TAG biosynthesis” (Scientific Reports, 2018).

Biological target: the molecule itself
Test: SEC; Superdex 200 10/300 GL, 4 °C, 100 mM triethanolamine pH 7.5, 300 mM NaCl, 5% glycerol, 1% n-octyl-β-D-glucopyranoside, 1 mM TCEP; column calibrated with Bio-Rad gel filtration standard; oligomer size assumes a globular protein

B1: Δ46AtDGAT3 (Arabidopsis thaliana acyl-CoA:diacylglycerol acyltransferase 3 lacking the putative chloroplast transit peptide) (domain or fragment, UniProt Q9C5W0 47-360, looked up)
chain: CNNEFADKGHVNYYIEPTRCGEEKEKVKVMEKEKKALKKKAKVLKSLSKNLDMFSSIGFGLDPEAGLVGEIQTKTISEATEILVKQLEQLKAEEKILKKQRKEEKAKAKAMKKMTEMDSESSSSSESSDSDCDKGKVVDMSSLRNKAKPVLEPLQPEATVATLPRIQEDAISCKNTSEALQIALQTSTIFPSMANPGQTLKTVEAVSVVGLPLNRVEVCMGGKCKRSGGALLLDEFQRAMTGFEGSAVACKCMGKCRDGPNVRVVKETDAVMTDSVRTPSKTLCVGVGLQDVETIVTSFFDEECSREGLGSVSY
notes: AtDGAT3 (At1g48300), Arabidopsis thaliana, 360-residue protein of the revised TAIR annotation (GenBank AEE32272); the 46 N-terminal residues (putative chloroplast transit peptide predicted by ChloroP 1.1) removed; calculated mass of the His-tagged protein 35.4 kDa; Cloned NdeI/XhoI into pET-32b(+), in frame with a C-terminal 6xHis tag; the NdeI site of the forward primer supplies a start …
  stoichiometry N: 3
